Experimental data as given in patent US20120184020A1, “ENGINEERED MICROORGANISMS WITH ENHANCED FERMENTATION ACTIVITY” (Verdezyne, Inc., priority 2009, published 2012).
Several values for one entry are separate records, joined by “and”; a condition that tells them apart may be missing. Equal values may be shown once.

B1: Ruminococcus xylose isomerase: native xylose isomerase from Ruminococcus flavefaciens strain 17, SEQ ID NO: 31 (protein, listed as Ruminococcus flavefaciens)
chain: MEFFSNIGKIQYQGPKSTDPLSFKYYNPEEVINGKTMREHLKFALSWWHTMGGDGTDMFGCGTTDKTWGQSDPAARAKAKVDAAFEIMDKLSIDYYCFHDRDLSPEYGSLKATNDQLDIVTDYIKEKQGDKFKCLWGTAKCFDHPRFMHGAGTSPSADVFAFSAAQIKKALESTVKLGGNGYVFWGGREGYETLLNTNMGLELDNMARLMKMAVEYGRSIGFKGDFYIEPKPKEPTKHQYDFDTATVLGFLRKYGLDKDFKMNIEANHATLAQHTFQHELRVARDNGVFGSIDANQGDVLLGWDTDQFPTNIYDTTMCMYEVIKAGGFTNGGLNFDAKARRGSFTPEDIFYSYIAGMDAFALGFRAALKLIEDGRIDKFVADRYASWNTGIGADIIAGKADFASLEKYALEKGEVTASLSSGRQEMLESIVNNVLFSL
B2: E. coli EDA protein: 2-keto-3-deoxygluconate-6-phosphate aldolase (eda) isolated from E. coli genomic DNA (protein, UniProt P0A955 1-213, looked up)
KHG/KDPG aldolase: MKNWKTSAESILTTGPVVPVIVVKKLEHAVPMAKALVAGGVRVLEVTLRTECAVDAIRAIAKEVPEAIVGAGTVLNPQQLAEVTEAGAQFAISPGLTEPLLKAATEGTIPLIPGISTVSELMLGMDYGLKEFKFFPAEANGGVKALQAIAGPFSQVRFCPTGGISPANYRDYLALKSVLCIGGSWLVPADALEAGDYDRITKLAREAVEGAKL
B3: PAO1 EDD protein: phosphogluconate dehydratase (edd) of Pseudomonas aeruginosa PAO1, SEQ ID NO: 70 (protein, listed as Pseudomonas aeruginosa)
chain: MHPRVLEVTRRIQARSAATRQRYLEMVRAAASKGPHRGTLPCGNLAHGVAACGESDKQTLRLMNQANVAIVSAYNDMLSAHQPFERFPGLIKQALHEIGSVGQFAGGVPAMCDGVTQGEPGMELSLASRDVIAMSTAIALSHNMFDAALCLGVCDKIVPGLLIGSLRFGHLPTVFVPAGPMPTGISNKEKAAVRQLFAEGKATREELLASEMASYHAPGTCTFYGTANTNQLLVEVMGLHLPGASFVNPNTPLRDELTREAARQASRLTPENGNYVPMAEIVDEKAIVNSVVALLATGGSTNHTLHLLAIAQAAGIQLTWQDMSELSHVVPTLARIYPNGQADINHFQAAGGMSFLIRQLLDGGLLHEDVQTVAGPGLRRYTREPFLEDGRLVWREGPERSLDEAILRPLDKPFSAEGGLRLMEGNLGRGVMKVSAVAPEHQVVEAPVRIFHDQASLAAAFKAGELERDLVAVVRFQGPRANGMPELHKLTPFLGVLQDRGFKVALVTDGRMSGASGKVPAAIHVSPEAIAGGPLARLRDGDRVRVDGVNGELRVLVDDAEWQARSLEPAPQDGNLGCGRELFAFMRNAMSSAEEGACSFTESLNGWR

Assays:
[1] = Xylose isomerase activity/kinetic assay on soluble whole cell extract (sorbitol dehydrogenase coupled, NADH, A340); assay type: biochemical; conditions: xylose isomerase expressed in S. cerevisiae, total soluble crude extract; xylose concentrations between 40 and 500 nM (so in the source); Michaelis Mentin plots
Experimental: […] Louis, Mo.), and about 2 U sorbitol dehydrogenase (Roche) at about 30° C. […] A Beckman DU-800 was utilized with an Enzyme Mechanism software package (Beckman Coulter, Inc.), and the change in the A340 was monitored for 2-3 minutes.
[…] Louis, Mo.), and 2 U Sorbitol Dehydrogenase (SDH) (Roche, Indianapolis, Ind.) at about 30° C. […] A Beckman DU-800 spectrophotometer was utilized with an Enzyme Mechanism software package (Beckman Coulter, Inc, Brea, Calif.), and the change in the A340 was monitored for 2-3 minutes.
[…] Louis, Mo.), and 2 U sorbitol dehydrogenase (SDH) (Roche, Indianapolis, Ind.) at about 30° C. […] A Beckman DU-800 spectrophotometer was utilized with an Enzyme Mechanism software package (Beckman Coulter, Inc, Brea, Calif.), and the change in the A340 was monitored for 2-3 minutes.
Approximately 20 μg of soluble whole cell extract from each transformed cell line was prepared using Y-PER plus reagent as described above was incubated in a solution containing about 100 mM Tris, pH 7.5, 10 mM MgCl ? 2, 0.15 mM NADH (Sigma, St. Louis, Mo.), and 2 U Sorbitol Dehydrogenase (SDH) (Roche, Indianapolis, Ind.) at about 30° C. […] A Beckman DU-800 spectrophotometer was utilized with an Enzyme Mechanism software package (Beckman Coulter, Inc, Brea, Calif.), and the change in the A340 was monitored for 2-3 minutes.

[2] = test system: engineered yeast (S. cerevisiae); experiment: Heterologous xylose isomerase expression in yeast (active yes/no); assay type: cell-based; conditions: xylose isomerase of donor organism expressed in engineered yeast (S. cerevisiae)
[3] = In vivo evaluation of xylose isomerase constructs in C5 strain: xylose fermentation, aerobic then anaerobic; assay type: cell-based, Saccharomyces cerevisiae; conditions: harvest at 372 hours
From the text: The engineered strain was designed to include the following genetic modifications: the native Pho13 gene (alkaline phosphatase specific for p-nitrophenyl phosphate) was disrupted by inserting a construct containing the native TLK1 gene (Transketolase-1); the native aldose reductase gene (Gre3) was disrupted by inserting a construct containing the native high-affinity glucose transporter-7 gene (HXT7); the native glucose-repressible alcohol dehydrogenase II gene (adh2) was disrupted by inserting a construct containing the native xylulokinase gene (XYLK); and the native orotidine-5′ phosphate decarboxylase gene (ura3) was disrupted by inserting a construct containing the native transaldolase 1 gene […]. The resulting strain had the following genotype: pho13::TKL1, gre3::HXT7, adh2::XYLK, ura3::TAL1.
The C5 strain was transformed using standard protocols with either p426GPD (as a control) or the chimeric variants XI-R, XI-Rp5, XI-Rp10, or XI-Rp15. The transformed cells were grown on SC-glucose minus uracil initially and then passaged onto SC-xylose minus uracil. Cultures of each of the above constructs were made in SC-xylose minus uracil—and grown for one week. The cultures were grown aerobically at 30° C. with 250 rpm agitation, 1 vvm sparge of process air, 21% O2. The pH was controlled at about 5.0 with 1N NaOH. […] At 24 hours elapsed fermentation time the fermentation was switched to anaerobic conditions. […] Oxygen was purged with 100% N2 sparge at 1 vvm until percent O2 was below 1%. Aeration was then set at 0.25 vvm 100% N2.
The final sample also measured biomass by dry cell weight.

[4] = Industrial yeast strain: serum bottle (anaerobic) growth and ethanol production on xylose; assay type: cell-based, Saccharomyces cerevisiae; conditions: sealed serum bottles, versus vector only control
Experimental: The serum bottles were sealed with a butyl rubber stopper to prevent air exchange. As a result, the cultures became anaerobic once the available oxygen in the serum bottle was utilized. In general, anaerobiosis (e.g., the onset of anaerobic conditions) occurred a few hours after the culture was inoculated. Xylose utilization, ethanol production and cell growth were measured every twenty four hours.

[5] = Industrial yeast strain BF903 evaluation: aerobic growth and xylose consumption in YP-xylose; assay type: cell-based, Saccharomyces cerevisiae; conditions: commercial yeast strain BF903, YP-xylose with G418, aerobic, 30° C., 7 days
Experimental: A commercially available industrial diploid strain of Saccharomyces cerevisiae (strain BF903; “Stillspirits” triple distilled yeast, Brewcraft, Albany, New Zealand; available at Hydrobrew, Oceanside, Calif.) was obtained and was made competent for transformation using known yeast cell transformation procedures. […] Transformed yeast containing each construct were grown overnight aerobically in a 15 ml culture tube on YPD media containing 2% glucose. After about 24 hours, about 25 ml of YP media containing 2% glucose and 100 μg/ml G418 was seeded with the cells at an initial OD600 of 0.5 in a 250 ml Erlenmeyer flask and grown aerobically at 30° C. The cultures were then passaged once every 7 days into fresh media, also at an initial OD600 of 0.5.
Measurements were taken of the cell optical density (OD600) to assess cell density and plated onto YPD with 100 μg/ml G418 to ensure that the plasmid was stable. […] The strains were then grown overnight in YPD (with 100 μg/ml G418) and used to inoculate about 50 ml YP-xylose (with 100 μg/ml G418) into disposable 250 ml Erlenmeyer flasks with vented caps at an initial OD600 of about 1. The cultures were allowed to grow aerobically at 30° C. at 200 rpm for 7 days.

[6] = Anti-His western blot of EDD and EDA variants expressed in S. cerevisiae (soluble/insoluble fractions); design: species or system Saccharomyces cerevisiae; conditions: C-terminal HIS tag; total crude extract and solubilized extract
Experimental: Transformation of the p426GPD plasmids containing an edd or an eda variant gene into yeast strain BY4742 was accomplished using the Zymo Research frozen-EZ yeast transformation II kit according to the manufacturer's protocol. The transformed BY4742 cells were selected by growth on a synthetic dextrose medium (SD) (0.67% yeast nitrogen base-2% dextrose) containing complete amino acids minus uracil (Krackeler Scientific Inc). Plates were incubated at about 30° C. for about 48 hours. Transformant colonies for each edd and eda variant were inoculated onto 5 ml of SD minus uracil medium and cells were grown at about 30° C. and shaken at about 250 rpm for about 24 hours. Cells were harvested by centrifugation at 1000×g for about 5 minutes, after which protein crude extract was prepared with Y-PER Plus (Thermo Scientific) according to the manufacturer's instructions. Whole cell extract protein concentrations were determined using the Coomassie Plus Protein Assay (Thermo Scientific) according to the manufacturer's directions. For each edd and eda variant His-tagged construct, about 10 μg of soluble and insoluble fractions were loaded on 4-12% NuPAGE Novex Bis-Tris protein gels (Invitrogen) and proteins were analyzed by western using anti-(His)6 (SEQ ID NO: 138) mouse monoclonal antibody (Abcam) and HRP-conjugated secondary antibody (Abcam). […]

[7] = EDA activity assay: S. cerevisiae EDA extracts with saturating E. coli EDD extract (LDH coupled, NADH); assay type: biochemical
Experimental: EDA genes isolated from a variety of sources were expressed in yeast and evaluated independently of EDA activity, to identify EDA activities suitable of inclusion in an engineered yeast strain. […] The activity of integrated EDAs in Thermosacc-Gold haploids, were also evaluated in this manner.
EDD extractions (adapted from Chemyan et al, Protein Science 16:2368-2377, 2007): • 1) Pellet cells in 50 ml conical tubes, 4° C., 3,000 rpm, 10 mins, discard supernatant. • 2) Resuspend in 2 ml degassed PDGH buffer (20 mM MES pH 6.5, 30 mM NaCl, 5 mM MnCl2, 0.5 mM FeCl2, 10 mM 2-mercaptoethanol, 10 mM cysteine, sparged with nitrogen gas). Move to hungate tube. • 3) Add 0.1% Triton X-100, 10 ng/ml DNase, 10 μg/ml PMSF, 10 μg/ml TAME (Na-(p-toluene sulfonyl)-L-arginine methyl ester), 100 μg/ml lysozyme. • 4) Sparge hungate tube with nitrogen gas, cap and seal. Incubate 2 hours at 37° C., swirl occasionally. • 5) Clarify by centrifugation in 2-ml tube, 4° C., 10 mins, 14,000 rpm. Keep supernatant. • 6) Treat with 150 mM pyruvate and 10 mM sodium cyanoborohydride (work in hood) to inactivate aldolase activity. Incubate 30 mins at room temperature. • 7) During incubation, pre-equilibrate PD-10 column from GE • a. Remove top cap, pour off storage buffer. • b. Cut off bottom tip, fit in 50 ml conical with adapter. • c. Pour 5 ml of 20 mM MES buffer, pH 6.5 (total of 5 times). Discard flow-through. • 8) Run sample through column, then add MES buffer to a total of 2.5 ml volume added. Discard flow-through. • 9) Run 3.5 ml 20 mM MES pH 6.5 buffer to elute protein. Discard column in appropriate waste receptacle. • 10) Perform Bradford assay (1:10 or 1:20 dilution).
• 1) Spin down in 50 ml conicals, 4° C., 3,400 rpm, 5 mins. […]
Each reaction contains 50 mM Tris-HCl, pH 7, 10 mM MgCl2, 0.15 mM NADH, 15 μg LDH, saturating amounts of EDD determined empirically (usually −100 μg), 1-50 μg EDA (depending on level of activity), and 1 mM 6-phosphogluconate. Reactions are started by the addition of 6-phosphogluconate and monitored for 5 mins at 30° C.

Row | Molecule | Specific Activity [1] [µmol/min/mg] | Active? (yes/no) [2] | Glucose [3] [g/L] | Ethanol ([3]; listed as XI-R) | Xylose ([3]; listed as XI-R) | cell density (FIG. 12) ([4]; YP plus xylose) | ethanol production (FIG. 12) ([4]; xylose as a carbon source) | xylose consumption (FIG. 11) [5] | expression and solubility in S. cerevisiae (western, FIGS. 13A and 13B) [6] | EDA activity relative to EDA from P. aeruginosa ([7]; E. coli EDA slope outside the linear range, underestimated) | EDA activity compared (in words) ([7]; EDAs expressed in S. cerevisiae, saturating E. coli EDD extract)
1 | B1 | 0.9605 | Yes | 0 | 15.65 g/L and 15.5 g/L | 3.14 g/L and 3.85 g/L | higher cell density | more ethanol | more efficient at consuming xylose than the strain carrying the vector control only |  |  | 
2 | B2 |  |  |  |  |  |  |  |  | expressed and soluble | approximately 16 fold | most active
3 | B3 |  |  |  |  |  |  |  |  | expressed and soluble |  | 
